B1: scFrm2: enzyme (nitroreductase) derived from Saccharomyces cerevisiae, SEQ ID NO:7, expressed in E. coli (protein, listed as Saccharomyces cerevisiae)
chain: MSPTGNYLNAITNRRTIYNLKPELPQGVGLDDVKRTVHVILKNTPTAFNSQVNRAVIIVGDTHKRIWDAVASAMPTAEAKKRPESCRDEAYGSVIFFTDEGPTEKLQRDFPALAAAFPTCAAHTTGAVQIQSWTALELLGLGANLQHYNDYVKSALPQDVPIAWTVQSQLVFGVPTALPEEKTFINNVINVYH
modifications: scFrm2 Polypeptide
B2: nfsA: nitroreductase derived from Escherichia coli, SEQ ID NO: 13, overexpressed in E. coli (protein, listed as Escherichia coli)
chain: MTPTIELICGHRSIRHFTDEPISEAQREAIINSARATSSSSFLQCSSIIRITDKALREELVTLTGGQKHVAQAAEFWVFCADFNRHLQICPDAQLGLAEQLLLGVVDTAMMAQNALIAAESLGLGGVYIGGLRNNIEAVTKLLKLPQHVLPLFGLCLGWPADNPDLKPRLPASILVHENSYQPLDKGALAQYDEQLAEYYLTRGSNNRRDTWSDHIRRTIIKESRPFILDYLHKQGWATR
modifications: nfsA Polypeptide
B3: nfsB: nitroreductase derived from Escherichia coli, SEQ ID NO:15, overexpressed in E. coli (protein, listed as Escherichia coli)
chain: MDIISVALKRHSTKAFDASKKLTPEQAEQIKTLLQYSPSSTNSQPWHFIVASTEEGKARVAKSAAGNYVFNERKMLDASHVVVFCAKTAMDDVWLKLVVDQEDADGRFATPEAKAANDKGRKFFADMHRKDLHDDAEWMAKQVYLNVGNFLLGVAALGLDAVPIEGFDAAILDAEFGLKEKGYTSLVVVPVGHHSVEDFNATLPKSRLPQNITLTEV
modifications: nfsB Polypeptide
B4: RgPAL: phenylalanine ammonia-lyase derived from yeast Rhodotorula glutinis JN-1, SEQ ID NO: 5, expressed in E. coli (protein, listed as Rhodotorula glutinis)
chain: MAPSVDSIATSVANSLSNGLAGDLRKKTSGAGSLLPTTETTQIDIVERILADAGATDQIKLDGYTLTLGDVVGAARRGRTVKVADSPQIREKIDASVEFLRTQLDNSVYGVTTGFGGSADTRTEDAISLQKALLEHQLCGVLPTSMDGFALGRGLENSLPLEVVRGAMTIRVNSLTRGHSAVRIVVLEALTNFLNHGITPIVPLRGTISASGDLSPLSYIAASITGHPDSKVHVDGQIMSAQEAIALKGLQPVVLGPKEGLGLVNGTAVSASMATLALTDAHVLSLLAQANTALTVEAMVGHAGSFHPFLHDVTRPHPTQIEVARNIRTLLEGSKYAVHHETEVKVKDDEGILRQDRYPLRCSPQWLGPLVSDMIHAHSVLSLEAGQSTTDNPLIDLENKMTHHGGAFMASSVGNTMEKTRLAVALMGKVSFTQLTEMLNAGMNRALPSCLAAEDPSLSYHCKGLDIAAAAYTSELGHLANPVSTHVQPAEMGNQAINSLALISARRTAEANDVLSLLLATHLYCVLQAVDLRAMEFEHTKEFEPMVTDLLKQHFGALATADVEDKVRKSIYKRLQQNNSYDLEQRWHDTFSVATGAVVEALAGNEVSLASLNAWKVACAEKAIALTRTVRDSFWAAPSSASPALKYLSPRTRILYSFVREDVGVKARRGDVYLGKQEVTIGTNVSRIYEAIKDGRIAPVLVKMMA
modifications: RgPAL Polypeptide
B5: scHbn1: enzyme (nitroreductase) derived from Saccharomyces cerevisiae, SEQ ID NO:9, expressed in E. coli (protein, listed as Saccharomyces cerevisiae)
chain: MSAVATYLKTLTARRTIYALKPELPGEITINDIQSVVQTIIKETPTAFNSQPNRAVILTGETHKKVWDEVTKAIESPAGQKRPASARDEAFGSVIFFTDDKVTEKLKADFPAYAAAFPSFADHTSGAAQINSWVALEAMGLGGHLQHYNGYIKAALPSKIPESWTVQAQLVFGTPAAPPGEKTYIKNDVEIFN
modifications: scHbn1 Polypeptide
B6: cdFLDZ: enzyme derived from Clostridium difficile, SEQ ID NO: 11, expressed in E. coli (protein)
chain: MKISSMFTPIRIGSMTVPNRFVVPPMGNNFANTDGTLSETSKAYYLERALGGFGLITIESSVVDKKAKGGPRKPCLYDDSTIDSFKNVIDACHDAGSKVSIQLQHAGSEGNEKVAGHPLKAASAIPASNGRNTPLAITTEEIYELIESYGDAALRAQKAGADAVEVHCAHGYLVSSFISQRTNKRVDEFGGCFENRMRLPRLIIENIRKKVGNSLAILCRINSTDDVPGGIDVHDSSVIAAYLEDCGIDGLHVSRSIHIHDEYMWAPTTLHAGFSAELVTEIKKAVSIPVITVGRYTEPQFAELMVRQGRCDLVAFGRQSLADPEMPNKAKNGKLDEMIPCIACLQGCVPNMFQGKPIACLANPILGHEAELKPAEISKEVLVVGGGVGGMLAAWVCAKRGHNVTLVEKSEVLGGQMRLAAYPPGKGDITNLVRSYISKCNQYGVKICTNTEATVELIKEKSPDVVIIATGATPLVLPIPGINDSGLIHAVDLLDGKKSCGKKVLVVGGGMVGCEVAAFLGEQEHEVTVIELREEVGADVISEHRKFLMNDFENYNIHTITGAKVSKFYDDGVDYLLTDGTEHDLKGFDSVVLAMGSRNYDPLSEVIKEVVKETYIVGDAVKARRALDATKEAFEVALNI
modifications: Clostridium difficile; cdFLDZ Polypeptide

Legend:
[1] = Resting-cell reaction of scFrm2-, scHbn1-, cdFLDZ-producing E. coli, 4-nitrocinnamic acid to 4-aminocinnamic acid; format: cell-based, Escherichia coli; settings: resting cells, 2.5 mM 4-nitrocinnamic acid, 30° C., 12 hours, pH 7.0; versus control E. coli
Method: Each of the scFrm2-, scHbn1-, and cdFLDZ-producing Escherichia coli strains were precultured using 3 mL of LB medium containing 30 mg/L kanamycin sulfate at 28° C. for 16 hours with shaking at 300 rpm. 1 mL of this preculture liquid was inoculated to 100 mL of LB medium containing 30 mg/L kanamycin sulfate, cultured at 30° C. for 4 hours with shaking at 120 rpm, and after 0.1 mM IPTG was added, incubated further at 20° C. for 12 hours. The obtained bacterial cells were washed twice with a reaction buffer (100 mM potassium dihydrogen phosphate (KH2PO4), 1 mM magnesium sulfate (MgSO4), 0.5 mM thiamine chloride, pH 7.0).
The resting cells thus obtained were suspended in a reaction buffer containing 2.5 mM 4-nitrocinnamic acid, and reacted at 30° C. for 12 hours with shaking at 300 rpm. After the reaction, the reaction supernatant was collected to quantify 4-aminocinnamic acid. The supernatant was transferred to a centrifuge tube, collected by centrifugation, and the reaction product was quantified using the above HPLC.
(§1) The same experiment was also performed using the host Escherichia coli as a control.

[2] = Enzyme activities of nfsA and nfsB in cell reactions, 4-nitrocinnamic acid to 4-aminocinnamic acid; format: cell-based, Escherichia coli; settings: 2 g/L 4-nitrocinnamic acid, 2% glycerol, pH 8.0, 37° C., 18 hours
Method: Each of the nfsA- and nfsB-producing Escherichia coli strains was precultured using 5 mL of LB medium containing 40 mg/L of streptomycin sulfate at 28° C. for 16 hours with shaking at 300 rpm. 1 mL of this pre-cultured solution was inoculated to 100 mL of TB medium containing 80 mg/L streptomycin sulfate, cultured at 30° C. for 4 hours with shaking at 120 rpm. 0.1 mM IPTG was added, and the culture was further incubated at 30° C. for another 18 hours.
The pH of the culture medium containing the obtained bacterial cells was adjusted to 8.0 by addition of 2N NaOH. 2 g/L of 4-nitrocinnamic acid and 2% final concentration of glycerol were suspended in this culture medium, and the reaction was carried out at 37° C. for 18 hours with shaking at 120 rpm. After the reaction, the reaction solution supernatant was collected to quantify 4-aminocinnamic acid. Specifically, the supernatant was transferred to a centrifuge tube, collected by centrifugation, and the reaction product was quantified using the above HPLC.
The same experiment was also carried out using the host Escherichia coli as a control.

[3] = Deammonase activity of purified enzymes by absorptiometry; format: biochemical; settings: purified recombinant enzyme 2 mg/mL, 50 mM Tris-HCl pH 8.6, 0.3 to 9.6 mM substrate, 380 nm, 10 minutes
Method: • Apparatus: BECKMAN COULTER DU800 UV/Vis Spectrophotometer • Amount of enzyme: 2mg/mL • Buffer solution: 50mM Tris-HCl buffer (pH=8.6) • Concentration of substrate: 0.3mM to 9.6mM • Volume: 200μL • Measurement wavelength: From 4-nitrophenylalanine to 380 nm 4-nitrocinnamic acid: From phenylalanine to 305 nm cinnamic acid: • Measurement period: 10 minutes • Measurement temperature: 25° C.
Each of the CamPAL-, LiePAL-, and RgPAL-producing Escherichia coli strains was inoculated to 5 mL of LB medium containing 30 mg/L kanamycin sulfate, and cultured at 28° C. for 16 hours (hereinafter also may be referred to as “preculture”). […]
The enzyme activity was measured and quantified by measuring the absorbance of the reaction product at the absorption wavelength for 10 minutes using an absorptiometer.
Specifically, regarding the deammonase activity for phenylalanine, 2 mg/mL of each of the above enzymes was added to 50 mM Tris-HCl buffer (pH=8.6) containing 0.3 to 9.6 mM phenylalanine to cause reaction, and the change in absorbance at a wavelength of 305 nm resulting from the formation of cinnamic acid was measured for 10 minutes. […]

[4] = Resting-cell reaction of PAL-producing E. coli, 4-nitrophenylalanine to 4-nitrocinnamic acid; format: cell-based, Escherichia coli; settings: resting cells, 24 hours, 28° C., pH 8.5, 20 mM 4-nitrophenylalanine; versus control Escherichia coli
Method: The CamPAL-, LiePAL-, and RgPAL-producing Escherichia coli strains mentioned above were precultured using 3 mL of LB medium containing 40 mg/L kanamycin sulfate at 28° C. for 16 hours with stirring at 300 rpm. 1 mL of this pre-cultured liquid was inoculated to 100 mL of LB medium containing 40 mg/L of kanamycin sulfate, cultured at 30° C. for 4 hours with shaking at 120 rpm, and after the addition of 0.5 mM of IPTG, incubated further for 20 hours. The obtained bacterial cells were washed twice with a reaction buffer (100 mM Tris-HCl buffer, pH 8.5).
The resting cells obtained were suspended in a reaction buffer and reacted at 28° C. with shaking at 300 rpm. 20 mM of 4-nitrophenylalanine was added to the medium every 24 hours while the reaction was continued. The reaction supernatant was periodically collected to quantify 4-nitrophenylalanine and 4-nitrocinnamic acid.
The supernatant was transferred to a centrifuge tube, collected by centrifugation, and the reaction product was quantified using high performance liquid chromatography (HPLC).
as §1

Row | Molecule | amount of 4-aminocinnamic acid in the medium supernatant [1] | 4-aminocinnamic acid converted from 4-nitrocinnamic acid [2] [g/L] | other results
1 | B1 | remarkably increased as compared with the control E. coli | – | –
2 | B2 | – | 0.26 | –
3 | B3 | – | 0.76 | –
4 | B4 | – | – | capacity to convert 4-nitrophenylalanine to 4-nitrocinnamic acid [3]: have a capacity to covert 4-nitrophenylalanine to 4-nitrocinnamic acid; amount of 4-nitrocinnamic acid in the reaction supernatant [4]: significantly higher than that of the control Escherichia coli
5 | B5 | remarkably increased as compared with the control E. coli | – | –
6 | B6 | remarkably increased as compared with the control E. coli | – | –

Source: patent publication US20210017555A1, “METHOD FOR PRODUCING 4-AMINOCINNAMIC ACID, AND VECTOR AND HOST CELL USED IN SAME” (JAPAN SCIENCE AND TECHNOLOGY AGENCY, priority 2018, published 2021)
